The target of this assay is TniQ transposition protein of the type I-F3b CAST element Tn6900, His6-tagged. As to the kind of experiment: cryo-EM structure.

The stoichiometry N is a count of units in the complex or per binding partner. “TniQ transposition protein of the type I-F3b CAST element Tn6900, His6-tagged (natural protein)” had a stoichiometry N of 2.

Source of the values: publication PMC10693918.
